From patent publication US20190330320A1

Target: hyperphosphorylated human tau P301L (4R0N) from rTg4510 mouse brain (64 and 70 kDa species) (human) (UniProt P10636)
Assay: binding to P301L human mutant tau isolated from 10 month old Tg4510 mice

hyperphosphorylated human tau P301L (4R0N) from rTg4510 mouse brain (64 and 70 kDa species) (human), sequence (P10636 other isoform, or with tags, fused parts or gaps P301L P301L): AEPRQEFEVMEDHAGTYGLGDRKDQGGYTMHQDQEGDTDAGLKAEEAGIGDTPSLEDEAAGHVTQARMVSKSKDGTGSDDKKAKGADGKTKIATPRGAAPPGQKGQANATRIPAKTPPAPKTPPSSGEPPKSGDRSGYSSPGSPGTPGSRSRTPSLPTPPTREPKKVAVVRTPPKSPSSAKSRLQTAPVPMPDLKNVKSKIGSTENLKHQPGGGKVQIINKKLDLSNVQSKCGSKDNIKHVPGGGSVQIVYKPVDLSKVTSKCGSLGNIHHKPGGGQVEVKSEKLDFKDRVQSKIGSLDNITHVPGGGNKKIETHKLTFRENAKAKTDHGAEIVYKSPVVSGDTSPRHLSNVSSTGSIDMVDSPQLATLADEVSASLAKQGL

TG/wt (binding to P301L tau from Tg4510 mice over wild type): 1
B1: 4E4 (antibody, from another filing, V domains shown)
VH: EVQLVESGGGLVQPGGSLKLSCAASGFNFNISAIHWVRQASGKGLEWVGRIRSKSHNYATLYAASLKGRFTLSRDDSRNTAYLQMSSLQTEDMAVYYCTVLSANYDTFDYWGQGTLVTVSS
VL: SYELTQPPSVSVSPGQTARISCFGDTLPKQYTYWYQQKPGQAPVLVIYKDTERPSGIPERFSGSSSGTTVTLTISGVQAEDEADYYCLSADNSATWVFGGGTKVTVL
